19 variants from the supplement of paper PMC7125110 can be followed below.

First the molecules themselves.
B1: glmS ribozyme (parent)
chain: AUAAAAGCGCCAGAACUACAGAAAUGUAGUUGACGAGGAGGAGGUUUAUCGAAUUUUCGGCGGAUGCCUCCAAA

± gives the standard error. For part of these data: This sample holds only a part of the variants without activity.

Settings in all cases: with glucosamine-6-phosphate
The variants in data set [1] derive from B1. In words: kcat; higher = faster cleavage; RNA array. An outline of the steps: (§1)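 Glucosamine-6-phosphate (40 μM to 10 mM) in HEPES/KCl/Mg(OAc)2 buffer was flowed over sequenced MiSeq chips, and tiles were imaged over ~14 h. Barcoded ribozyme variants there had been transcribed in situ by E. coli RNA polymerase and were tracked through a hybridised Cy3 probe at 37 °C. One- or two-exponential decay fits to per-tile medians, normalised to baseline and to non-cleaving reference variants, gave kobs. kcat and KM came from weighted Michaelis–Menten fits across concentrations.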

The variants in data set [2] derive from B1. In words: self-cleavage kobs at 40 uM GlcN6P; higher = faster cleavage; RNA array. Put shortly:
as §1

In data set [3] the parent is B1. In words: KM; higher = weaker cofactor use; RNA array. Put shortly:
as §1

The variants in data set [4] derive from B1. As to the kind of experiment: self-cleavage kobs at 160 uM GlcN6P; higher = faster cleavage; RNA array. Put shortly:
as §1

Variants of B1 are the subject of data set [5]. In words: self-cleavage kobs at 640 uM GlcN6P; higher = faster cleavage; RNA array. Put shortly:
as §1

Variants of B1 are the subject of data set [6]. In words: self-cleavage kobs at 2500 uM GlcN6P; higher = faster cleavage; RNA array. Put shortly: as §1
The variants in data set [7] derive from B1. In words: self-cleavage kobs at 10000 uM GlcN6P; higher = faster cleavage; RNA array. Put shortly:
as §1

For AUAAAAGCGCCCGAACUACAGAAAUGUAGUUGACGAUGAGGAGGUUUAUCGAAUUUUCGGCGGAUGCCUCCAAA, the kcat in the data set with glucosamine-6-phosphate [1] is below 1e-05 s⁻¹. The “self-cleavage kobs at 40 uM GlcN6P” value with glucosamine-6-phosphate [2] was below 1e-05 s⁻¹.

Turning to AUAAAAGCGCCAGAACUACAGAAAUGUAAUUAACGAGGAGGAGGUUUAUCGAAUUUUCGGCGGAUGCCUCCAAA, the catalytic constant (kcat) with glucosamine-6-phosphate [1] was found to be 0.00111 ± 7.1e-05 s⁻¹. Besides, in the data set with glucosamine-6-phosphate [3], the KM stood at 2000 ± 220 µM. For the same variant, in the data set with glucosamine-6-phosphate [2], the “self-cleavage kobs at 40 uM GlcN6P” value was found to be 2.33e-05 ± 8.5e-06 s⁻¹. Also, the “self-cleavage kobs at 160 uM GlcN6P” value with glucosamine-6-phosphate [4] was 8.75e-05 ± 1.7e-05 s⁻¹. For the same variant, the “self-cleavage kobs at 640 uM GlcN6P” value with glucosamine-6-phosphate [5] came out at 0.000239 ± 6.2e-05 s⁻¹. Further, in the data set with glucosamine-6-phosphate [6], the “self-cleavage kobs at 2500 uM GlcN6P” value came to 0.000588 ± 0.00013 s⁻¹. For the same variant, the “self-cleavage kobs at 10000 uM GlcN6P” value in the data set with glucosamine-6-phosphate [7] turned out to be 0.000945 ± 0.00013 s⁻¹.

In the case of AUAAAAGCGCCAGAACUACAGAAAUGUAGUUGACGAGGAGGAAGUUUAUCGAAUUGUCGGCGGAUGCCUCCAAA, the kcat with glucosamine-6-phosphate [1] worked out at 4.8e-05 ± 2.6e-07 s⁻¹. Moreover, in the data set with glucosamine-6-phosphate [3], the Michaelis-Menten constant (KM) came out at 3400 ± 58 µM. Besides, the “self-cleavage kobs at 10000 uM GlcN6P” value in the data set with glucosamine-6-phosphate [7] was 3.58e-05 ± 9e-06 s⁻¹.

As for AUAAAAGCGCCAGAACUACAGAAAUGUAGUUGACGAGGAACAGGUUUAUCGAAUUUUCGGCGGAUGCCUCCAAA, in the data set with glucosamine-6-phosphate [1], the catalytic constant (kcat) came out at 0.000139 ± 2e-05 s⁻¹. In the data set with glucosamine-6-phosphate [5], the “self-cleavage kobs at 640 uM GlcN6P” value turned out to be 4.87e-05 ± 1.8e-05 s⁻¹. In the data set with glucosamine-6-phosphate [6], the “self-cleavage kobs at 2500 uM GlcN6P” value came out at 0.000179 ± 4.9e-05 s⁻¹. In addition, in the data set with glucosamine-6-phosphate [7], the “self-cleavage kobs at 10000 uM GlcN6P” value came to 0.000123 ± 1.4e-05 s⁻¹.

AUAAAAGCGCCAGAACUACAGAAAUGUAUUUGACGUGGAGGAGGUUUAUCGAAUUUUCGGCGGAUGCCUCCAAA: the kcat with glucosamine-6-phosphate [1] is below 1e-05 s⁻¹. The “self-cleavage kobs at 2500 uM GlcN6P” value with glucosamine-6-phosphate [6] is below 1e-05 s⁻¹.

In the case of AUAAAAGCGCCAGAACUACAGAAAUGUAGUUGACGAGCAGGAGGUUUAUCGAAUUUUCGGCGGAUGCAUCCAAA, the catalytic constant (kcat) in the data set with glucosamine-6-phosphate [1] was 1.39e-05 ± 4.4e-06 s⁻¹. Also, the “self-cleavage kobs at 40 uM GlcN6P” value with glucosamine-6-phosphate [2] was below 1e-05 s⁻¹.

With AUAAAAGCGCCUGAACUACAGAAAUGUAGUGGACGAGGAGGAGGUUCAUCGAAUUUUCGGCGGAUGCCUCCAAA, the kcat with glucosamine-6-phosphate [1] came out at 0.000915 ± 0.00036 s⁻¹. Also, the “self-cleavage kobs at 640 uM GlcN6P” value with glucosamine-6-phosphate [5] was 0.000923 ± 0.00024 s⁻¹. Moreover, in the data set with glucosamine-6-phosphate [6], the “self-cleavage kobs at 2500 uM GlcN6P” value turned out to be 0.00136 ± 0.00036 s⁻¹. For the same variant, the “self-cleavage kobs at 10000 uM GlcN6P” value with glucosamine-6-phosphate [7] amounted to 0.000748 ± 0.00013 s⁻¹.

On to AUAAAAGCGCCAGAACUACAGAAAUGUAGUAGACGAGGAGGAGGUUUAUAUAGUUUUCGGCGGAUGCCUCCAAA, for which the turnover number (kcat) in the data set with glucosamine-6-phosphate [1] is below 1e-05 s⁻¹. In the data set with glucosamine-6-phosphate [4], the “self-cleavage kobs at 160 uM GlcN6P” value is below 1e-05 s⁻¹.

AUAAAAGCGCAAGAACUACAGAAAUGUAGUUGACGAGGAGAAGGUUUAUCGAAUUUUCGGCGGAUGCCUCCAAA: the kcat in the data set with glucosamine-6-phosphate [1] is below 1e-05 s⁻¹. Also, the Michaelis-Menten constant (KM) with glucosamine-6-phosphate [3] is 2450 ± 650 µM. The “self-cleavage kobs at 160 uM GlcN6P” value with glucosamine-6-phosphate [4] is below 1e-05 s⁻¹. Also, the “self-cleavage kobs at 640 uM GlcN6P” value with glucosamine-6-phosphate [5] was below 1e-05 s⁻¹.

With AUAAAAGCGCCAGAACUACAGAAAUGUAGUCGACGAGGAGGAGGUUUAUCGAAUUUUCGGCGGAUGACUCCAAA, the turnover number (kcat) with glucosamine-6-phosphate [1] worked out at 0.00103 ± 0.00015 s⁻¹. Also, the KM with glucosamine-6-phosphate [3] came to 1970 ± 540 µM. For the same variant, the “self-cleavage kobs at 40 uM GlcN6P” value with glucosamine-6-phosphate [2] was 2.9e-05 ± 6.9e-06 s⁻¹. The “self-cleavage kobs at 160 uM GlcN6P” value with glucosamine-6-phosphate [4] was determined as 5.29e-05 ± 2.2e-05 s⁻¹. The “self-cleavage kobs at 640 uM GlcN6P” value with glucosamine-6-phosphate [5] worked out at 0.000244 ± 5.6e-05 s⁻¹. In addition, the “self-cleavage kobs at 2500 uM GlcN6P” value with glucosamine-6-phosphate [6] amounted to 0.000603 ± 0.00011 s⁻¹. For the same variant, in the data set with glucosamine-6-phosphate [7], the “self-cleavage kobs at 10000 uM GlcN6P” value turned out to be 0.000857 ± 0.0001 s⁻¹.

Turning to AUAAAAGCGCCAGAACUACAGAAAUGUAGUUGACGAGGAGGGGGUUUAUCGAAUUUUCGGCGGGUGCCUCCAAA, the turnover number (kcat) with glucosamine-6-phosphate [1] worked out at 0.024 ± 0.0071 s⁻¹. Also, in the data set with glucosamine-6-phosphate [3], the KM came to 1370 ± 520 µM. Also, the “self-cleavage kobs at 40 uM GlcN6P” value with glucosamine-6-phosphate [2] amounted to 0.000694 ± 0.00014 s⁻¹. In addition, in the data set with glucosamine-6-phosphate [4], the “self-cleavage kobs at 160 uM GlcN6P” value is 0.0024 ± 0.00059 s⁻¹. Also, the “self-cleavage kobs at 640 uM GlcN6P” value with glucosamine-6-phosphate [5] came out at 0.00754 ± 0.0017 s⁻¹. Besides, the “self-cleavage kobs at 2500 uM GlcN6P” value with glucosamine-6-phosphate [6] is 0.0422 ± 0.015 s⁻¹. The “self-cleavage kobs at 10000 uM GlcN6P” value with glucosamine-6-phosphate [7] was 0.0194 ± 0.0055 s⁻¹.

With AUAAAAGCGCCAGAACUACAGAAAUGUAGUUGACGAGGAGGAGGUUUAUCGAAUUUCCGGCGGAUGCCUCAAAA, the kcat in the data set with glucosamine-6-phosphate [1] stood at 2.47e-05 ± 4e-06 s⁻¹. In addition, the “self-cleavage kobs at 2500 uM GlcN6P” value in the data set with glucosamine-6-phosphate [6] worked out at 2.96e-05 ± 1e-05 s⁻¹.

AUAAAAGCGCCAGAACUACAGAAAUGUAGUAGACGAAGAGGAGGUUUAUCGAAUUUUCGGCGGAUGCCUCCAAA: the kcat with glucosamine-6-phosphate [1] amounted to 0.0007 ± 0.00026 s⁻¹. Further, the “self-cleavage kobs at 160 uM GlcN6P” value with glucosamine-6-phosphate [4] turned out to be 6.91e-05 ± 1.3e-05 s⁻¹. Moreover, in the data set with glucosamine-6-phosphate [5], the “self-cleavage kobs at 640 uM GlcN6P” value is 0.000245 ± 3.6e-05 s⁻¹. Besides, in the data set with glucosamine-6-phosphate [6], the “self-cleavage kobs at 2500 uM GlcN6P” value is 0.000309 ± 7.3e-05 s⁻¹. For the same variant, in the data set with glucosamine-6-phosphate [7], the “self-cleavage kobs at 10000 uM GlcN6P” value turned out to be 0.000939 ± 0.00018 s⁻¹.

Take AUAAAAGCGCCCGAACUACAGAAAUGUAGUUGACGAGGAGGAGGUUUAUCGAAUUUUCGGCGGAUGCCUUUAAA: in the data set with glucosamine-6-phosphate [1], the kcat was determined as 0.000174 ± 1.1e-05 s⁻¹. In addition, the KM with glucosamine-6-phosphate [3] was found to be 1270 ± 200 µM. Moreover, the “self-cleavage kobs at 640 uM GlcN6P” value with glucosamine-6-phosphate [5] is 6.04e-05 ± 1.5e-05 s⁻¹. In addition, the “self-cleavage kobs at 10000 uM GlcN6P” value with glucosamine-6-phosphate [7] amounted to 0.000154 ± 2.8e-05 s⁻¹.

On to AUAAAGGCGCCAGAACUACAGAAAUGUAGGUGACGAGGAGGAGGUUUAUCGAAUUUUCGGCGGAUGCCUCCAAA, for which the kcat with glucosamine-6-phosphate [1] stood at 0.000154 ± 1.6e-05 s⁻¹. In addition, the KM with glucosamine-6-phosphate [3] is 5370 ± 1400 µM. The “self-cleavage kobs at 40 uM GlcN6P” value with glucosamine-6-phosphate [2] was below 1e-05 s⁻¹. Also, in the data set with glucosamine-6-phosphate [4], the “self-cleavage kobs at 160 uM GlcN6P” value is below 1e-05 s⁻¹. Further, the “self-cleavage kobs at 2500 uM GlcN6P” value with glucosamine-6-phosphate [6] turned out to be 5.13e-05 ± 1.9e-05 s⁻¹. For the same variant, the “self-cleavage kobs at 10000 uM GlcN6P” value with glucosamine-6-phosphate [7] worked out at 9.98e-05 ± 1.4e-05 s⁻¹.

AUAAAAGCGCCAGAACUACAGAAAUGUAGUUGACGAGCAGGAGGUUUAUCGAAUUUUCGGCGGAUCCCUUCAAA: the kcat with glucosamine-6-phosphate [1] is 1.23e-05 ± 9.7e-07 s⁻¹. Further, in the data set with glucosamine-6-phosphate [5], the “self-cleavage kobs at 640 uM GlcN6P” value is below 1e-05 s⁻¹.

As for AUAAAAGCGCCAGAACUACAGAAAUGUAGUUGACGAGGAGGAGGUUUAGCGAAUUUUCGGCGGAUGCCGCCAAA, the turnover number (kcat) in the data set with glucosamine-6-phosphate [1] amounted to 6.03e-05 ± 2.8e-05 s⁻¹. Moreover, in the data set with glucosamine-6-phosphate [5], the “self-cleavage kobs at 640 uM GlcN6P” value was 9.69e-05 ± 3.4e-05 s⁻¹. Moreover, in the data set with glucosamine-6-phosphate [6], the “self-cleavage kobs at 2500 uM GlcN6P” value amounted to 9.67e-05 ± 2.8e-05 s⁻¹.

AUAAAAGCGCCAGAACUACAGAAAUGUAGUUGACGAGGAGGAGGAUUAUCGAAUUUUCGGCGGGUGCCUCCAAA: the kcat with glucosamine-6-phosphate [1] is 0.0186 ± 0.0054 s⁻¹. Also, the Michaelis constant (KM) with glucosamine-6-phosphate [3] was 600 ± 260 µM. In addition, the “self-cleavage kobs at 40 uM GlcN6P” value with glucosamine-6-phosphate [2] amounted to 0.000998 ± 0.00025 s⁻¹. The “self-cleavage kobs at 160 uM GlcN6P” value with glucosamine-6-phosphate [4] was found to be 0.00526 ± 0.0021 s⁻¹. Moreover, in the data set with glucosamine-6-phosphate [5], the “self-cleavage kobs at 640 uM GlcN6P” value was 0.0143 ± 0.0033 s⁻¹. For the same variant, the “self-cleavage kobs at 10000 uM GlcN6P” value with glucosamine-6-phosphate [7] turned out to be 0.015 ± 0.004 s⁻¹.

On to AUAAAAGCGUCAGAACUACAGAAAUGUAGUUGACGAGGAGGAGGUUUAUAGAAUUUUCGGCGGAUGCCUCCAAA, for which the kcat in the data set with glucosamine-6-phosphate [1] was below 1e-05 s⁻¹. Moreover, in the data set with glucosamine-6-phosphate [2], the “self-cleavage kobs at 40 uM GlcN6P” value is below 1e-05 s⁻¹. In the data set with glucosamine-6-phosphate [7], the “self-cleavage kobs at 10000 uM GlcN6P” value was below 1e-05 s⁻¹.

As a reminder, the kcat is the maximal rate divided by the concentration of active sites. The KM is the substrate concentration at which the rate is half of its maximum.
